Data set [1] concerns the target Recombinant human tropoelastin lacking domain 26A (human). Briefly: SPR. For orientation: In SPR one partner is held on a chip, and binding of the other changes the refractive index at the surface.
The target is the same in data set [2]. Description: ELISA. Background: An ELISA detects its analyte on a solid surface through an enzyme-linked reagent.
The target in data set [3] is Full-length human fibulin-5 (residues 42–448) (human) (UniProt Q9UBX5). Description: ELISA.
The target of data set [4] is Human fibrillin-1 N-terminal fragment PF1, encoded by exons 1–11 (residues 31–489) (human) (UniProt P35555). Description: ELISA.
Sequence of Human fibrillin-1 N-terminal fragment PF1, encoded by exons 1–11 (residues 31–489) (human) (P35555 31-489): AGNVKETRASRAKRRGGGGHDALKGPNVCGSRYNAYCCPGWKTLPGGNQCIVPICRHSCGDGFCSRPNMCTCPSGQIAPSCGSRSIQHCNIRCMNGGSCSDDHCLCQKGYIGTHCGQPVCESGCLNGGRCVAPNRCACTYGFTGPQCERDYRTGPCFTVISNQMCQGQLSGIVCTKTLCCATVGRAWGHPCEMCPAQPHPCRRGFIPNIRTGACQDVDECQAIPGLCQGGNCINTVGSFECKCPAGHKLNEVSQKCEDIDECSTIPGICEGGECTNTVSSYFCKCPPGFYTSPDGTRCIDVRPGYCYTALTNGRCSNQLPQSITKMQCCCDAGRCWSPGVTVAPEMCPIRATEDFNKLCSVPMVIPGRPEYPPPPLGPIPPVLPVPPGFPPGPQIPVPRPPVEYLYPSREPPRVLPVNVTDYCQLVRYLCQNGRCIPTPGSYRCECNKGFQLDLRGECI
Data set [5] deals with Full-length human fibulin-5 (residues 42–448) (human) (UniProt Q9UBX5). Briefly: ELISA. The source holds these as a separate data set.
Data set [6] has as its target Human fibrillin-1 fragment PF2 (human) (UniProt P35555). Briefly: ELISA.
Data set [7] concerns the molecule itself. Briefly: SEC-MALS. In general terms: Size exclusion chromatography separates by hydrodynamic size, large species first.
Data set [8] concerns the target Recombinant human tropoelastin lacking domain 26A (human). Description: ELISA. The source holds these as a separate data set.
Data set [9] concerns the target PF1 variant with the Marfan mutation S115C (human, UniProt P35555 31-489, S115C). Description: ELISA.
For data set [10], the target named is PF1 variant with the Marfan mutation T101A (human, UniProt P35555 31-489, T101A). Description: ELISA.
Sequence of PF1 variant with the Marfan mutation T101A (P35555 31-489 T101A): as the sequence (P35555 31-489) above, with T71A counted along it
The target of data set [11] is PF1 variant with the Marfan mutation R62C (human, UniProt P35555 31-489, R62C). Description: ELISA.
Sequence of PF1 variant with the Marfan mutation R62C (P35555 31-489 R62C): as the sequence (P35555 31-489) above, with R32C counted along it

Like-named read-outs stand apart in the source and are kept apart here.

Sequence of PF1 variant with the Marfan mutation S115C (P35555 31-489 S115C): as the sequence (P35555 31-489) above, with S85C counted along it
Sequence of Human fibrillin-1 fragment PF2 (human) (P35555 45-2731): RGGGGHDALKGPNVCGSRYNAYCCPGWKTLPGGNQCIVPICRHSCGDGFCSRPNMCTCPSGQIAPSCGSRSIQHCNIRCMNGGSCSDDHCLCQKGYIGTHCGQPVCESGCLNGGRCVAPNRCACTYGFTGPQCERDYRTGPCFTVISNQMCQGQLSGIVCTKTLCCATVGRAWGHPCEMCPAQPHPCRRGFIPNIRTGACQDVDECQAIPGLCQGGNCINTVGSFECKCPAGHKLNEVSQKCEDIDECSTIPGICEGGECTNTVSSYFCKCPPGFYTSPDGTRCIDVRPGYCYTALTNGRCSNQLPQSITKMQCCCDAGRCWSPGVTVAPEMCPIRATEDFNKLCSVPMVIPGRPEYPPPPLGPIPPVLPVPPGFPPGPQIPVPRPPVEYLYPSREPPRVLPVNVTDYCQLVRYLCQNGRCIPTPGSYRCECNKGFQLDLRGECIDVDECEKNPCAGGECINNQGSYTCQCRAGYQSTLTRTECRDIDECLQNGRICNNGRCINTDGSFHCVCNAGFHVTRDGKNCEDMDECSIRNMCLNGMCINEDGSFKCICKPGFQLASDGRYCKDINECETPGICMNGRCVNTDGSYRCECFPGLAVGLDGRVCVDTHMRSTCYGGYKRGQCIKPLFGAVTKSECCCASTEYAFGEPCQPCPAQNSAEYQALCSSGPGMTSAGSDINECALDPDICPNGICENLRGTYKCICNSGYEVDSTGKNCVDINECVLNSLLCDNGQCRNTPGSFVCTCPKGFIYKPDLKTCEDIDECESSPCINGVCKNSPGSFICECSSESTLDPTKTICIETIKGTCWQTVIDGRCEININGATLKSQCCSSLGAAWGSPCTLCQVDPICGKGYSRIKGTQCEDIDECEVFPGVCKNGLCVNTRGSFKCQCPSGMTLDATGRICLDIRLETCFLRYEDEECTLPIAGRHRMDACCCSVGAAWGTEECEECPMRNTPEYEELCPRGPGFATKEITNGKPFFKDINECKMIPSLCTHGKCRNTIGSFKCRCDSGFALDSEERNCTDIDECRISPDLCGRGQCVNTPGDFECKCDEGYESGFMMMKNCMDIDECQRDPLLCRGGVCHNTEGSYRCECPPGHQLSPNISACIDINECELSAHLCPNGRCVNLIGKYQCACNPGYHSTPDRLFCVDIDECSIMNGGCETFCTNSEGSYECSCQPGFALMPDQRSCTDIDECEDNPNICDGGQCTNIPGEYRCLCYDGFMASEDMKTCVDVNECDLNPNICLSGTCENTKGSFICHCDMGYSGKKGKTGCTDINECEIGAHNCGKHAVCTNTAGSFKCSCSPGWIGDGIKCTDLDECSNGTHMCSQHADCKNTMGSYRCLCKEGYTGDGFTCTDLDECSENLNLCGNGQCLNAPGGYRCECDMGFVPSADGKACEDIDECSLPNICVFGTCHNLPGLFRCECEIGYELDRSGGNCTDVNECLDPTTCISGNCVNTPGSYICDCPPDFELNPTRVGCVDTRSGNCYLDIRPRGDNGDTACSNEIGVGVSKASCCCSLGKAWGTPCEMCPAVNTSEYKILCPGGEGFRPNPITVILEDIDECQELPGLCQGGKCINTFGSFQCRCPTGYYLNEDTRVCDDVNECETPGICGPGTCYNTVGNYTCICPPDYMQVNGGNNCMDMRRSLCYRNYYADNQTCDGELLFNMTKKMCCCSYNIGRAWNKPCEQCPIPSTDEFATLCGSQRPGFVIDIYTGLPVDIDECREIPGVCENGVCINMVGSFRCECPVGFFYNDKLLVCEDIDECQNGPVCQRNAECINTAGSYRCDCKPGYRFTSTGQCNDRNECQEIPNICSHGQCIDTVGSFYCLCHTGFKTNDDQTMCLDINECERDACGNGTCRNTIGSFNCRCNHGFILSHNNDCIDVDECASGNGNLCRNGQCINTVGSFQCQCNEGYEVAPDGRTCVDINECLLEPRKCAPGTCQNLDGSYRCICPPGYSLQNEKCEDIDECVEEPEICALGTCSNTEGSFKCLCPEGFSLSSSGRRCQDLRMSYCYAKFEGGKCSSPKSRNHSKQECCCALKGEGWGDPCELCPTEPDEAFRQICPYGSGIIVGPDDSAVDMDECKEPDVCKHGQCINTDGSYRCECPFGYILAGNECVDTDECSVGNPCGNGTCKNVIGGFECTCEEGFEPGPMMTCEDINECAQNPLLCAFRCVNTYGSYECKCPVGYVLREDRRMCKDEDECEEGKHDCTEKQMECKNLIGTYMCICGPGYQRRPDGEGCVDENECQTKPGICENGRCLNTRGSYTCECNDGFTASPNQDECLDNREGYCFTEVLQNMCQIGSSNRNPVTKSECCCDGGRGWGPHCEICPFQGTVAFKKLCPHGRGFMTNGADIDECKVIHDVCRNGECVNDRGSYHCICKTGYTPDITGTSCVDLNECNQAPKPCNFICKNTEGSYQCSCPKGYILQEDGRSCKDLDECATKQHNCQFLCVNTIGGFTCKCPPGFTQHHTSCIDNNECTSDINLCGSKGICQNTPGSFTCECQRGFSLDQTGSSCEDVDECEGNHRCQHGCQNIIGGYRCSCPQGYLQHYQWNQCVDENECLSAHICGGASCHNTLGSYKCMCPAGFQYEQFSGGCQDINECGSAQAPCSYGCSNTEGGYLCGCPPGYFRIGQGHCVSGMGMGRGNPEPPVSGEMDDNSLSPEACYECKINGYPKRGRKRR

Consider “Full-length fibulin-5 with the cutis laxa mutation C217R (from UniProt Q9UBX5 42-448) (natural protein)”, for which, in [1], the Kd came out at 865 nM, the koff came out at 0.0046 s⁻¹ and the kon came to 8400 M⁻¹ s⁻¹.
For the molecule “Full-length human fibulin-5 (residues 42–448) (from UniProt Q9UBX5 42-448) (natural protein)”, in data set [1], the dissociation constant Kd was determined as 64 nM, the koff came out at 0.0013 s⁻¹ and the kon was 44000 M⁻¹ s⁻¹.
For the molecule “Human full-length lysyl oxidase (from UniProt P28300 22-417) (enzyme)”, the Kd in data set [2] was found to be 49 nM; in data set [3], 304 nM; in [4], 26 nM; in data set [5], 338 nM.
On to “Full-length human fibulin-4 (residues 26–418) (from UniProt O95967 26-443) (natural protein)”, for which the dissociation constant Kd in data set [6] was determined as 194 nM; in data set [2], 131 nM.
Regarding “Full-length fibulin-5 with the cutis laxa mutation S227P (from UniProt Q9UBX5 42-448) (natural protein)”, in data set [1], the Kd amounted to 3420 nM, the koff worked out at 0.0093 s⁻¹ and the kon came to 20000 M⁻¹ s⁻¹.
For the molecule “Fibulin-5 domain pair F5-E4+5 (residues 207–287) (from UniProt Q9UBX5 207-287) (domain or fragment)”, the Kd in data set [2] came to 452 nM.

B1: Full-length human fibulin-4 (residues 26–418) (natural protein)
chain: SPQDSEEPDSYTECTDGYEWDPDSQHCRDVNECLTIPEACKGEMKCINHYGGYLCLPRSAAVINDLHGEGPPPPVPPAQHPNPCPPGYEPDDQDSCVDVDECAQALHDCRPSQDCHNLPGSYQCTCPDGYRKIGPECVDIDECRYRYCQHRCVNLPGSFRCQCEPGFQLGPNNRSCVDVNECDMGAPCEQRCFNSYGTFLCRCHQGYELHRDGFSCSDIDECSYSSYLCQYRCINEPGRFSCHCPQGYQLLATRLCQDIDECESGAHQCSEAQTCVNFHGGYRCVDTNRCVEPYIQVSENRCLCPASNPLCREQPSSIVHRYMTITSERSVPADVFQIQATSVYPGAYNAFQIRAGNSQGDFYIRQINNVSAMLVLARPVTGPREYVLDLEMVTMNSLMSYRASSVLRLTVFVGAYTF
modifications: biotinylated (sulfosuccinimidyl 2-(biotinamido)-ethyl-1,3-dithiopropionate) where it was the soluble ligand of a solid phase assay
As to B1, the “stoichiometry N” value in [7] is 2.

B2: Fibulin-5 domain pair F5-E6FC (residues 288–448) (domain or fragment)
chain: DINECEHRNHTCNLQQTCYNLQGGFKCIDPIRCEEPYLRISDNRCMCPAENPGCRDQPFTILYRDMDVVSGRSVPADIFQMQATTRYPGAYYIFQIKSGNEGREFYMRQTGPISATLVMTRPIKGPREIQLDLEMITVNTVINFRGSSVIRLRIYVSQYPF
modifications: biotinylated where it was the soluble ligand of a solid phase assay
Turning to B2, the Kd in data set [8] is 965 nM. Besides, the binding result in data set [9], in [10] and in data set [11] was “binds” in each case.

B3: N-terminal four domains of fibulin-4 (residues 26–217) (domain or fragment)
chain: SPQDSEEPDSYTECTDGYEWDPDSQHCRDVNECLTIPEACKGEMKCINHYGGYLCLPRSAAVINDLHGEGPPPPVPPAQHPNPCPPGYEPDDQDSCVDVDECAQALHDCRPSQDCHNLPGSYQCTCPDGYRKIGPECVDIDECRYRYCQHRCVNLPGSFRCQCEPGFQLGPNNRSCVDVNECDMGAPCEQRCFNSYGTFLCRCHQGYELHRDGFSCS
modifications: biotinylated where it was the soluble ligand of a solid phase assay
For B3, the “stoichiometry N” value in [7] came to 2.

B4: Fibulin-5 domain pair F5-E1+2 (residues 42–167) (domain or fragment)
chain: DIDECRTIPEACRGDMMCVNQNGGYLCIPRTNPVYRGPYSNPYSTPYSGPYPAAAPPLSAPNYPTISRPLICRFGYQMDESNQCVDVDECATDSHQCNPTQICINTEGGYTCSCTDGYWLLEGQCL
modifications: biotinylated where it was the soluble ligand of a solid phase assay
As for B4, the Kd in data set [8] is 332 nM. The binding result in data set [9], in data set [10] and in data set [11] was “binds” each time.

One may read the Kd as the constant that tells how readily two partners part at equilibrium. By koff is commonly meant a measure of how fast the partners let go of each other. In general, kon refers to the second-order rate constant of association. Usually stoichiometry N stands for the number of molecules, sites or subunits per partner or assembly.
